Test results: patent US20090075291A1 (RESEARCH FOUNDATION OF STATE UNIVERSITY OF NEW YORK, published 2009)

B1: RXP-B (peptide)
peptide: EIQPRSPLMFSGGGSAHARVPFYSHSAKEARWPRAHR
notes: Synthetic doublet peptide from the biased phage display screen
B2: RXP-A (peptide)
peptide: DVPGRDPGYIKGGGSAHARVPFYSHSLNRNRKPSLYQ
notes: as for B1
B3: RXP-C (peptide)
peptide: GIAAREPNSHDGGGSAHARVPFYSHSRDLWRKPAKSL
notes: as for B1
B4: RXP-D (peptide)
peptide: WEEPRRPFTMSGGGSAETHARVPFYSHSPMRHRLPGVHL
notes: as for B1
B5: RXP-E (peptide)
peptide: SDDLRSPQLHNGGGSAVPFYSHSHMVRRKPRNPR
notes: as for B1

How the values were obtained:
[1] = target: T1, Recombinant Cx43CT (carboxyl terminal domain of rat connexin43, residues 255-382, preceded by GPLG) (rat, UniProt P08050 255-382); assay: SPR, peptide 1.0 mM
T1 construct: range 255-382; Made in E. coli as a GST fusion (pGEX-6P-2) and cleaved from GST; the protein used was derived from rat cDNA; 15N-labeled for NMR; also called recombinant CT; 15N-Cx43CT
T1 sequence (P08050 other isoform, or with tags, fused parts or gaps limits assumed): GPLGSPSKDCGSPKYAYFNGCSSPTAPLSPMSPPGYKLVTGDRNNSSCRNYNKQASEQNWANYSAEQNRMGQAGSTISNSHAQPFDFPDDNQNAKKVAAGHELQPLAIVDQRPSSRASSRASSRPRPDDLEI

[2] = target: T1, Recombinant Cx43CT (carboxyl terminal …); assay: SPR, Cx43CT immobilized on carboxymethyl dextran
Experimental: Recombinant Cx43CT was covalently bound to a carboxylmethyl dextran matrix (Salamon et al., “Surface Plasmon Resonance Spectroscopy as a Tool for Investigating the Biochemical and Biophysical Properties of Membrane Protein Systems. II: Applications to Biological Systems,” Biochim. Biophys. Acta 1331(2):131-152 (1997), which is hereby incorporated by reference in its entirety). Specific peptides were presented and, when feasible, dissociation constants (KD) were calculated from the time course of binding and unbinding of the ligand, using a 1:1 (Langmuir) association and dissociation kinetic model (Biacore software package). In both phases (association and dissociation), the first 5-8 seconds of recording were not included in the fit, to avoid artifacts resulting from peptide distribution within the flow cells (Lang et al., “Surface Plasmon Resonance as a Method to Study the Kinetics and Amplitude of Protein-protein Binding,” in PRACTICAL METHODS IN CARDIOVASCULAR […] 936-947 (Stefan Dhein, Friedrich Wilhelm Mohr & Mario Delmar eds., 2005), which is hereby incorporated by reference in its entirety).
Phage display allows for the rapid screening of thousands of peptides, but the characteristics of binding cannot be properly defined. Furthermore, the peptides are part of a capsid protein, which may affect the ability of the peptide to properly interact with the target protein. Therefore, some of the peptides identified by the phage screening were selected to, using SPR, further characterize their ability to bind Cx43CT. Recombinant Cx43CT was covalently bound to a carboxymethyl dextran matrix and synthetic peptides presented for binding. A total of six 12-mer peptides from the non-biased screening (peptides labeled RXP1 to RXP6 in Table 1) and 5 peptides from the biased screening (labeled RXP-A to RXP-E in Table 3) were tested. […] Peptide RXP4 (SEQ ID NO:15) caused the largest deflection in SPR signal. RXP4 (250 μM) was added at time “zero.” Washout was initiated after two minutes of exposure.

[3] = target: Cx43 expressed in N2a cells (Cx43 gap junction channels); assay: cell-based or functional assay
[4] = target: T1, Recombinant Cx43CT (carboxyl terminal …); assay: SPR, Cx43CT immobilized, 1:1 Langmuir kinetic fit, pH 6.5 and 7.4
Experimental: A total of six 12-mer peptides from the non-biased screening (peptides labeled RXP1 to RXP6 in Table 1) and 5 peptides from the biased screening (labeled RXP-A to RXP-E in Table 3) were tested. […] Peptide RXP4 (SEQ ID NO:15) caused the largest deflection in SPR signal. RXP4 (250 μM) was added at time “zero.” Washout was initiated after two minutes of exposure. […] Higher concentrations of the peptide were tested but an asymptotic maximum response could not be detected. In addition, dissociation rates were too fast to reliably use them to calculate the kinetics of binding.
A different result emerged from the testing of the doublets. […] In contrast, peptide RXP-E (SEQ ID NO:10) generated a large, concentration-dependent deflection followed by a slow dissociation upon washout, as shown in FIG. 3B. The transitions were well-fit by exponential functions and the rates of association and dissociation were used as described in Example 4 to estimate the kinetic parameters. A full range of concentrations was tested in three separate occasions and at two different pHs of the solvent (6.5 and 7.4). No differences were observed as a function of pH.

[5] = target: T2, Cx43 from rat heart lysate (rat, UniProt P08050 2-382); assay: Cx43 pulldown assay, percent binding relative to RXPE; Example 19 does not state the source of Cx43
T2 construct: Native protein pulled down from a tissue lysate; also called cardiac Cx43
T2 sequence (P08050 2-382 limits assumed): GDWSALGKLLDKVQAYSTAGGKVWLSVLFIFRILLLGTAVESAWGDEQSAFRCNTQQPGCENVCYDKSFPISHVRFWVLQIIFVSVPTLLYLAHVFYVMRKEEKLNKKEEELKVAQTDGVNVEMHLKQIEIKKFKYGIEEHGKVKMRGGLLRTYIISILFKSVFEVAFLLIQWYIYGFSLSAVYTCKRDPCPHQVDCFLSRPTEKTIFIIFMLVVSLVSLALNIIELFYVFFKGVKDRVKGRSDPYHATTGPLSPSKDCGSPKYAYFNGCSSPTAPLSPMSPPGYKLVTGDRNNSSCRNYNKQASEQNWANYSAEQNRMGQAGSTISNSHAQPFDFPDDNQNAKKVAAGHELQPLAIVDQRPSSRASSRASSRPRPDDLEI

Binder	Response Dose [1] [arbitrary units]	binding result [2]	other results
Ac-RRKP-NH2 [Peptide 2504, AcRRKP-NH2]	46.5	–	–
Ac-RRNP-NH2 [Peptide 2505, AcRRNP-NH2]	34.9	–	–
B1	–	no binding	–
B2	–	no binding	–
Ac-RNPRNP-NH2 [Peptide 2501, AcRNPRNP-NH2]	24.8	–	–
B3	–	no binding	–
B4	–	no binding	–
B5	–	–	junctional conductance (Gj) relative to control at pipette pH 6.2 (acidification-induced uncoupling) [3]: 57 % of control; junctional conductance (Gj) relative to control during octanol superfusion [3]: 57.6 % of control; Kd [4]: 3.9 µM
SDDLASAQLHNGGGSAVPFYSHSHMVRRKPANAR (also called RXPE mutant (5,7,31,33pa)) [58]	–	–	binding result [5]: no binding
SDDLRSPQLHNGGGSAVPFYSHSHMVRRKPANAR (also called RXPE mutant (31,33A)) [29]	–	–	binding result [5]: no binding
SDDLASAQLHNGGGSAVPFYSHSHMVRRKAANPR (also called RXPE mutant (5,7,30,31A)) [31]	–	–	binding result [5]: no binding
Ac-RRKPRRKP-NH2 [Peptide 2503, AcRRKPRRKP-NH2]	295	–	–
